Legend:
Type in all cases: cell-based
[1] = tested on: PKA; assay: HaloTag-based FluoSTEP-AKAR co-expressed with FP11-Actin in HeLa cells, Fsk/IBMX stimulation
Text: Recently, anew biosensor design was developed using self-complementing split green FP (GFP) as the FRET donor. The self-complementation allowed the biosensors to be recruited and reconstituted at proteins of interest (POI) endogenously tagged with the FPs eleventh-strand (FP11). This allowed researchers to monitor compartmentalized signaling within endogenous microdomains without overexpressing the POI^[11]. However, this concept, fluorescent biosensors targeted to endogenous proteins (FluoSTEPs), suffers from two major limitations: low dynamic range and low brightness^[11]. Given the promising dynamic range achieved using HaloTag^(JF669) as a FRET acceptor in KARs, we decided to introduce HaloTag into FluoSTEP-AKAR. We replaced mRuby2 in FluoSTEP-AKAR with HaloTag and additionally introduced the EV linker to further increase the dynamic range. In order to address the limitation of low brightness of sfGFP as a FRET donor, we tested the use of two different split mNeonGreen (mNG) versions: split mNeonGreen2 (mNG2)^[22] and split mNeonGreen3A (mNG3A)[^21] in parallel (FIG. 8A). We co-expressed the generated biosensors with FP11-Actin in HeLa cells and used Fsk and IBMX to stimulate the reporters to monitor PKA signal. […] Consistent with previous results biosensors with HaloTag at the C-terminus performed best. […]

[2] = tested on: PKA; assay: FluoSTEP-AKAR in HeLa cells endogenously expressing mNG11 (knock-in), Fsk/IBMX treatment; settings: HeLa-mNG11-β-Actin, HeLa-mNG11-clathrin and HeLa-mNG11-ezrin cells; 50 M Fsk and 100 μM IBMX
Protocol: Using our enhanced HaloTag-based FluoSTEPs mNG3A(1-10)-FHA1-xx aa EV linker-PKA substrate-HaloTag^(JF669) (xx=220 and 116 aa) we measured PKA activation upon treatment with 50 M Fsk and 100 μM IBMX in HeLa cells endogenously expressing mNG11 at different locations (CRISPER-mediated knock-in).

[3] = tested on: ERK; assay: Multiplexed biosensor imaging in HEK293T cells: ERK activity (yellow/far-red HaloTag-EKAR); settings: HEK293T cells co-expressing yellow/far-red HaloTag-EKAR and red/far-red HaloTag-AKAR; 100 ng/mL hEGF
Protocol: (§1) Cell culture and transfection HeLa and HEK293T cells were cultured in Dulbecco's modified Eagle medium (DMEM; Gibco) containing glucose (1 g/L) and supplemented with 10% (v/v) fetal bovine serum (Sigma-Aldrich) and 1% (v/v) penicillin-streptomycin (Pen-Strep; Sigma-Aldrich). NIH3T3 cells were cultured in DMEM (Gibco) containing glucose (1 g/L) and supplemented with 10% (v/v) fetal calf serum and 1% (v/v) Pen-Strep (Sigma-Aldrich). All cells were maintained in a humidified incubator at 37° C. with a 5% CO2 atmosphere. Before transfection, cells were plated onto sterile quartered 35-mm glass-bottomed dishes and grown to 50 to 70% confluence. Cells were then transfected using Lipofectamine 2000 (Invitrogen, HeLa) or PolyJet (SignaGen Laboratories, HEK293T and NIH3T3) and grown an additional 48 hours (HeLa, HEK293T) before imaging. NIH3T3 cells were changed to serum-free DMEM immediately before transfection, medium was changed to complete medium after 6 h. NIH3T3 cells were then serum-starved for 24 hours before imaging. HaloTag labeling was performed 24 h before imaging using synthetic fluorophores (Fluorophore-CA 500 nM, 24 h, 37° C.) in the respective medium. Synthetic fluorophores were kindly provided by Luke Lavis (Janelia Research Campus, JF669-CA, JFX646-CA and JF635) or Kai Johnsson (Max Planck Institute for Medical Research (Germany) and EPFL (Switzerland), NGD-CA). […]

[4] = target: T1, PKA (Homo sapiens, UniProt P17612); assay: Multiplexed biosensor imaging in HEK293T cells: PKA activity (red/far-red HaloTag-AKAR); settings: HEK293T cells co-expressing yellow/far-red HaloTag-EKAR and red/far-red HaloTag-AKAR; 100 ng/mL hEGF; Fsk and 100 μM IBMX together; M H89
T1 construct: endogenous in cells; host or cells: HEK293T; only the biosensors are transfected
Protocol: as §1

Row | PKA activity [4] | Molecule | increase when stimulated (dynamic range) ([1]; HeLa cells co-expressing FP11-Actin, Fsk and IBMX, HaloTag labeled with JF669, mean±SEM) | dynamic range relative to the conventional FluoSTEP ([1]; same experimental conditions, conventional FluoSTEP-AKAR of reference [11]) | response (PKA activation) compared between EV linker lengths [2] | ERK activity [3]
1 |  | mNG3A(1-10)-FHA1-EV linker-PKA substrate-HaloTag^(JF669): enhanced FluoSTEP-AKAR: split mNG3A donor, HaloTag^(JF669) acceptor, 116 aa EV linker (protein) MVSKGEEDNMASLPATHELHIFGSINGVDFDMVGQGTGNPNDGYEELNLKSTKGDLQFSPWILVPHIGYGFHQYLPYPDGMSPFQAAMVDGSGYQVHRTMQFEDGASLTVNYRYTYEGSHIKGEAQVMGTGFPADGPVMTNTLTAADLCVSKMTYPNDKTIISTFKWSYTTVNGKRYRSTARTTYTFAKPMAAKYLKNQPMYVLRKTELKHSMWTFGRNPACDYHLGNISRLSNKHFQILLGEDGNLLLNDISTNGTWLNGQKVSAGGSAGGSAGGSAGGSAGGSGSAGGSAGGSTSAGGSAGGSAGGSAGGSAGGSGSAGGSAGGSTSAGGSAGGSAGGSAGGSAGGSGSAGGSAGGSTSAGGSAGGSAGGSAGGSAGGLRRATLVDGGTGGSELMGSEIGTGFPFDPHYVEVLGERMHYVDVGPRDGTPVLFLHGNPTSSYVWRNIIPHVAPTHRCIAPDLIGMGKSDKPDLGYFFDDHVRFMDAFIEALGLEEVVLVIHDWGSALGFHWAKRNPERVKGIAFMEFIRPIPTWDEWPEFARETFQAFRTTDVGRKLIIDQNVFIEGTLPMGVVRPLTEVEMDHYREPFLNPVDREPLWRFPNELPIAGEPANIVALVEEYMDWLHQSPVPKLLFWGTPGVLIPPAEAARLAKSLPNCKAVDIGPGLNLLQEDNPDLIGSEIARWLSTLEISG | 71.1%±3.1% | about 8 times | diminished response compared to the sensor with the 220 aa EV linker | 
2 | increase in both ERK and PKA activity | hEGF: human epidermal growth factor (protein, UniProt P01133 23-1207, looked up, Pro-epidermal growth factor) Pro-epidermal growth factor: PQHWSCPEGTLAGNGNSTCVGPAPFLIFSHGNSIFRIDTEGTNYEQLVVDAGVSVIMDFHYNEKRIYWVDLERQLLQRVFLNGSRQERVCNIEKNVSGMAINWINEEVIWSNQQEGIITVTDMKGNNSHILLSALKYPANVAVDPVERFIFWSSEVAGSLYRADLDGVGVKALLETSEKITAVSLDVLDKRLFWIQYNREGSNSLICSCDYDGGSVHISKHPTQHNLFAMSLFGDRIFYSTWKMKTIWIANKHTGKDMVRINLHSSFVPLGELKVVHPLAQPKAEDDTWEPEQKLCKLRKGNCSSTVCGQDLQSHLCMCAEGYALSRDRKYCEDVNECAFWNHGCTLGCKNTPGSYYCTCPVGFVLLPDGKRCHQLVSCPRNVSECSHDCVLTSEGPLCFCPEGSVLERDGKTCSGCSSPDNGGCSQLCVPLSPVSWECDCFPGYDLQLDEKSCAASGPQPFLLFANSQDIRHMHFDGTDYGTLLSQQMGMVYALDHDPVENKIYFAHTALKWIERANMDGSQRERLIEEGVDVPEGLAVDWIGRRFYWTDRGKSLIGRSDLNGKRSKIITKENISQPRGIAVHPMAKRLFWTDTGINPRIESSSLQGLGRLVIASSDLIWPSGITIDFLTDKLYWCDAKQSVIEMANLDGSKRRRLTQNDVGHPFAVAVFEDYVWFSDWAMPSVMRVNKRTGKDRVRLQGSMLKPSSLVVVHPLAKPGADPCLYQNGGCEHICKKRLGTAWCSCREGFMKASDGKTCLALDGHQLLAGGEVDLKNQVTPLDILSKTRVSEDNITESQHMLVAEIMVSDQDDCAPVGCSMYARCISEGEDATCQCLKGFAGDGKLCSDIDECEMGVPVCPPASSKCINTEGGYVCRCSEGYQGDGIHCLDIDECQLGEHSCGENASCTNTEGGYTCMCAGRLSEPGLICPDSTPPPHLREDDHHYSVRNSDSECPLSHDGYCLHDGVCMYIEALDKYACNCVVGYIGERCQYRDLKWWELRHAGHGQQQKVIVVAVCVVVLVMLLLLSLWGAHYYRTQKLLSKNPKNPYEESSRDVRSRRPADTEDGMSSCPQPWFVVIKEHQDLKNGGQPVAGEDGQAADGSMQPTSWRQEPQLCGMGTEQGCWIPVSSDKGSCPQVMERSFHMPSYGTQTLEGGVEKPHSLLSANPLWQQRALDPPHQMELTQ |  |  |  | increase in both ERK and PKA activity
